In patent US20180134794A1 (Regeneron, published 2018):

What was measured:
[1] = biological target: T1, human MET (c-Met, hepatocyte growth factor receptor), endogenous on human cell lines (human, UniProt P08581 25-1390); experiment: cell-based or functional assay
[2] = biological target: T1, human MET (c-Met, hepatocyte growth …); experiment: cell-based or functional assay; remark: listed apart in the source
[3] = biological target: T1, human MET (c-Met, hepatocyte growth …); experiment: flow cytometry, A549 cells (endogenous MET), antibody 10 ug/ml
Procedure: (§1) After one additional wash with FACS buffer, samples were fixed with Cytofix (BD Biosciences, #554655), filtered with FACS buffer and run on an iQue flow cytometer (Intelicyte). Mean fluorescence intensity (MFI) data was determined using FlowJo software (FlowJo LLC).

[4] = biological target: T1, human MET (c-Met, hepatocyte growth …); experiment: flow cytometry, EBC-1 cells (endogenous MET), antibody 10 ug/ml
Procedure: as §1

[5] = biological target: T1, human MET (c-Met, hepatocyte growth …); experiment: flow cytometry, SNU-5 cells (endogenous MET), antibody 10 ug/ml
Procedure: as §1

[6] = biological target: T1, human MET (c-Met, hepatocyte growth …); experiment: flow cytometry, Hs746t cells (endogenous MET), antibody 10 ug/ml
Procedure: as §1

[7] = biological target: T1, human MET (c-Met, hepatocyte growth …); experiment: flow cytometry, MKN-45 cells (endogenous MET), antibody 10 ug/ml
Procedure: as §1

[8] = biological target: T1, human MET (c-Met, hepatocyte growth …); experiment: flow cytometry, U87MG cells (endogenous MET, low), antibody 10 ug/ml
Procedure: as §1

[9] = biological target: T1, human MET (c-Met, hepatocyte growth …); experiment: flow cytometry, MDA-MB-231 cells (endogenous MET, low), antibody 10 ug/ml
Procedure: as §1

[10] = biological target: T1, human MET (c-Met, hepatocyte growth …); experiment: flow cytometry, NCI-H1993 cells (endogenous MET), antibody 10 ug/ml; expressed as fold above unstained
Procedure: as §1

[11] = biological target: T2, human MET (c-Met, HGFR) endogenously expressed on cell lines (human, UniProt P08581 25-1390); experiment: cell-based or functional assay
T2 sequence (P08581 25-1390): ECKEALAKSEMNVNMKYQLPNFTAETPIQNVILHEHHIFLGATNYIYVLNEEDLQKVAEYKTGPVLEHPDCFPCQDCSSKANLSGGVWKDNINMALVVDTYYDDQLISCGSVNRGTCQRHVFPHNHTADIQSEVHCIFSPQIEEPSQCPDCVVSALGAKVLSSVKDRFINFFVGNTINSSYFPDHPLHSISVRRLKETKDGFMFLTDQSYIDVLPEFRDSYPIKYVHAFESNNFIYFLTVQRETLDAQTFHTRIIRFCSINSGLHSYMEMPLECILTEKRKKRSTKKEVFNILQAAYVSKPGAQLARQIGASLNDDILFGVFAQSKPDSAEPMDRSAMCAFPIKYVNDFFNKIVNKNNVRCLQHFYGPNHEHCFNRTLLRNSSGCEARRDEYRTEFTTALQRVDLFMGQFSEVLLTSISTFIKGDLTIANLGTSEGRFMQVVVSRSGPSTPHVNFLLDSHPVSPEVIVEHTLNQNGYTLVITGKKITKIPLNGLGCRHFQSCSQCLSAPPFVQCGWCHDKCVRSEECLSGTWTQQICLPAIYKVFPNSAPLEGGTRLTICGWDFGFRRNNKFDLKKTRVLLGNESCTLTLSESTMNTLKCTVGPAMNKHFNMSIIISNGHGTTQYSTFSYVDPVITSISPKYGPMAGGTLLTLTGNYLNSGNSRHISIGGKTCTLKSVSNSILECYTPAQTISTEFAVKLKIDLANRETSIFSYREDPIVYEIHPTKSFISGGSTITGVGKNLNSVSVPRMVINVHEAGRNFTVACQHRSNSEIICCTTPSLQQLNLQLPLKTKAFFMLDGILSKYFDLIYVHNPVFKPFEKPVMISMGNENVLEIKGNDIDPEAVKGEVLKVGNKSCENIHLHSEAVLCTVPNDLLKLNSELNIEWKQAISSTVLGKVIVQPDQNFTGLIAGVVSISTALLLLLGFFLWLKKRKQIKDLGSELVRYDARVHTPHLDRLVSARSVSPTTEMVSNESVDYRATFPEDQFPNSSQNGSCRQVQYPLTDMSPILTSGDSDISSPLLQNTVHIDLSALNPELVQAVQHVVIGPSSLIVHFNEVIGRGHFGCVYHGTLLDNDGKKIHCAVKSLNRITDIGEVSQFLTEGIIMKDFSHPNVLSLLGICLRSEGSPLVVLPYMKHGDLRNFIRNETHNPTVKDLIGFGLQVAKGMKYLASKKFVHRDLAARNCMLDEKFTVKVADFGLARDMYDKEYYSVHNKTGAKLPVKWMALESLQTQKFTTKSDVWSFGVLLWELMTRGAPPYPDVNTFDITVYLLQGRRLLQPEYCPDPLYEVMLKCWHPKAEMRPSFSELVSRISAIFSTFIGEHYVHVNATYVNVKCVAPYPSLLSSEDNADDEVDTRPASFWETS

[12] = biological target: T1, human MET (c-Met, hepatocyte growth …); experiment: cell-based or functional assay; remark: listed apart in the source
[13] = biological target: T2, human MET (c-Met, HGFR) endogenously …; experiment: cell-based or functional assay; remark: listed apart in the source

T1 sequence (P08581 25-1390 limits assumed, form in doubt): as the sequence (P08581 25-1390) above

B1: H4H14639D (bispecific antibody, human IgG4, V domains shown)
VH 1: EVQLVESGGGLVQPGTSLRLSCAASGFTFDDYAMHWVRQAPGKGLEWVSGITWNSYNIDYADSVKGRFTISRDNAKNSLYLQMNSLRAEDTALYYCAKDDDYSNYVYFDYWGQGTLVTVSS
VH 2: EVQLVESGGGLVQPGGSLRLSCAASGFIVTTNYMTWLRQAPGKGLEWVSLIYSSGHTYYADSVKGRFTISRHNSKNTLYLQMDSLRAEDTAVYYCASAFAADVFDIWGQGTMVTVSS
VL: not shown
notes: human IgG4 Fc; also called No. 122; MET×MET bispecific antibody
% Inhibition (HEK293/SRE-Luc Blocking Activity, 1 h mAb pre-bind) [1]: 95% | EC50 (Ligand (HGF)-Independent HEK293/SRE-Luc Activation) [1]: 0.057 nM | Fold Response (Ligand (HGF)-Independent HEK293/SRE-Luc Activation) [1]: 1.8 fold | IC50 (HEK293/SRE-Luc Blocking Activity, 1 h mAb pre-bind) [1]: 0.024 nM | Relative MET Level, NCI-H596 cells, antibody 5 ug/ml, 18 hours, immunoblot [2]: 0.24 relative to control (hFc) | FACS Binding (MFI Fold Above Isotype Control) [3]: 10 fold | FACS Binding (MFI Fold Above Isotype Control) [4]: 252 fold | FACS Binding (MFI Fold Above Isotype Control) [5]: 454 fold | FACS Binding (MFI Fold Above Isotype Control) [6]: 34 fold | FACS Binding (MFI Fold Above Isotype Control) [7]: 156 fold | FACS Binding (MFI Fold Above Isotype Control) [8]: 18 fold | FACS Binding (MFI Fold Above Isotype Control) [9]: 12 fold | FACS Binding (MFI fold above unstained, per footnote) [10]: 188 fold

B2: H4H14635D (bispecific antibody, human IgG4, V domains shown)
VH 1: QVQLVESGGGVVQPGRSLRVSCVVSGFTFSSFGMHWVRQAPDKGLEWVAVIWYDGSNDYYSDSVKGRFTISRDNSKNTLFLQMNRLRAEDTAVYYCARANNWNRFDAFDLWGQGTMVTVSS
VH 2: B1 VH 2
VL: not shown
notes: human IgG4 Fc; also called No. 42; MET×MET bispecific antibody
% Inhibition (HEK293/SRE-Luc Blocking Activity, 1 h mAb pre-bind) [1]: 85% | EC50 (Ligand (HGF)-Independent HEK293/SRE-Luc Activation) [1]: 1.4 nM | Fold Response (Ligand (HGF)-Independent HEK293/SRE-Luc Activation) [1]: 2.2 fold | IC50 (HEK293/SRE-Luc Blocking Activity, 1 h mAb pre-bind) [1]: 0.19 nM | FACS Binding (MFI Fold Above Isotype Control) [3]: 12 fold | FACS Binding (MFI Fold Above Isotype Control) [4]: 263 fold | FACS Binding (MFI Fold Above Isotype Control) [5]: 477 fold | FACS Binding (MFI Fold Above Isotype Control) [6]: 39 fold | FACS Binding (MFI Fold Above Isotype Control) [7]: 183 fold | FACS Binding (MFI Fold Above Isotype Control) [8]: 18 fold | FACS Binding (MFI Fold Above Isotype Control) [9]: 11 fold

B3: H4H14639D (bispecific antibody, V domains shown)
VH 1: B1 VH 1
VH 2: B1 VH 2
VL: not shown
IC50 (read off the curve), inhibition of HGF-induced SRE-luciferase signal [11]: ~0.4 nM

B4: H4H14639D-Maytansinoid A (bispecific antibody, human IgG4, V domains shown)
VH 1: B1 VH 1
VH 2: B1 VH 2
VL: not shown
modifications: conjugated with SMCC-DM1 diastereomer (Maytansinoid A); residues and chain of attachment not stated
IC50 (nM), 3-day in vitro cytotoxicity assay, MDA-MB-231 cells (low MET) [12]: > 100 nM | IC50 (nM), 3-day in vitro cytotoxicity assay, SNU-5 cells [12]: 0.4 nM | IC50 (nM), 3-day in vitro cytotoxicity assay, U87MG cells (low MET) [12]: 100 nM

B5: H4H14634D (bispecific antibody, human IgG4, V domains shown)
VH 1: QVQLQESGPGLVKPSETLSLTCTVSGDSISSYYWTWIRQPPGKGLEWIGYIFYRGGTTYNPSLKSRVTISVDTSKNQFSLKLRSVTAADTAVYYCARGDDLLVVTSVYWYIDLWGRGTLVTVSS
VH 2: B1 VH 2
VL: not shown
% Inhibition (HEK293/SRE-Luc Blocking Activity, 1 h mAb pre-bind) [1]: 85% | EC50 (Ligand (HGF)-Independent HEK293/SRE-Luc Activation) [1]: 0.09 nM | Fold Response (Ligand (HGF)-Independent HEK293/SRE-Luc Activation) [1]: 3.4 fold | IC50 (HEK293/SRE-Luc Blocking Activity, 1 h mAb pre-bind) [1]: 0.0097 nM

B6: H4H14640D (bispecific antibody, human IgG4, V domains shown)
VH 1: QVQLVQSGTEVKEPGASVKVSCKASGYSFTTYGISWLRQAPGQGLEWMGWISTYNGDTISAQMLQDRVTLTADTSTRTAYMELRSLRSDDTAVYYCARGHEYDSLVYSYWGQGTLVTVSS
VH 2: B1 VH 2
VL: not shown
% Inhibition (HEK293/SRE-Luc Blocking Activity, 1 h mAb pre-bind) [1]: 89% | EC50 (Ligand (HGF)-Independent HEK293/SRE-Luc Activation) [1]: 6.8 nM | Fold Response (Ligand (HGF)-Independent HEK293/SRE-Luc Activation) [1]: 2.5 fold | IC50 (HEK293/SRE-Luc Blocking Activity, 1 h mAb pre-bind) [1]: 0.52 nM

B7: H4H13312P2 (antibody, human IgG4, V domains shown)
VH: B1 VH 2
VL: not shown
EC50 (read off the curve), HGF-independent SRE-luciferase activation [13]: ~0.4 nM
